Laboratory results taken from paper PMC5746218.

Target: PitA (Haloferax volcanii) (Haloferax volcanii (endogenous in strain H26))
Assay: SEC; Sephacryl S-300 gel filtration of purified PitA against standard proteins (thyroglobulin, ferritin, KatG, BSA, cytochrome c554, cytochrome c)

- stoichiometry N (molecules of the subunit): > 10
Substance: PitA (Haloferax volcanii) (enzyme)
